Experimental findings from publication PMC4161314 are described below.

The target of the test is 20S proteolytic core of the proteasome, mouse liver (mouse (endogenous in mouse liver)) (UniProt O55234). Description: negative-stain electron microscopy; proteasomes co-purified with polyubiquitin conjugates on GstUBD beads, released at 37°C for 7 minutes, stained with 2% uranyl acetate; visual classification of side views, WT and PiZ samples.

“And” between values parts separate entries of the source, which are not always exact repeats. Equal values may be shown once.

UniProt O55234, sequence (O55234 whole entry, looked up): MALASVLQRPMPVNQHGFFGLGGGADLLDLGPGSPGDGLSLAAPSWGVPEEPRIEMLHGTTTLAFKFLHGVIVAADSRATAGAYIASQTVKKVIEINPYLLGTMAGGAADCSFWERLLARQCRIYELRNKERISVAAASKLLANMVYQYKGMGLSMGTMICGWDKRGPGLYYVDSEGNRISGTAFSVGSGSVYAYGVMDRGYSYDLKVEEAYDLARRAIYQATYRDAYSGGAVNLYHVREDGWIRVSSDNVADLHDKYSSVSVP

With “19S activator of the proteasome, mouse liver (from UniProt P62334 1-389) (complex)”, the percent of proteasomes with at least one 19S cap is 93% and 90%.
